Measurements: the nanobody polyreactivity screen of Harvey et al. (2022)

experiment: yeast display, Sf9 membrane polyspecificity reagent, FACS + sequencing; frameworks hold sequencing errors
Method in brief: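 Polyreactivity labels are assigned by the sorting gate from which each nanobody was recovered. The gates were low and high (top ~1%), set on anti-HA fluorescence for expression and streptavidin fluorescence for reagent binding. Before sorting, galactose-induced (36–48 hours) yeast display cells were stained for 1 hour at 4 °C with 10% biotinylated, detergent-solubilized Sf9 membrane reagent.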

Sequence	polyreactivity (PSR sort gate)
QVQLVESGGGLVQAGGSLRLSCAASGSTFGVNAMGWYRQAPGKERELVAAITWSGDTTYYADSVKGRFTISRDNAKNTVYLQMNSLKPEDSAVYYCATYYYYPSWYLLYGDYNYWGQGTQVTVSS	low polyreactivity
QVQLVESGGGLVQAGGSLRLSCAASGSTFGVNAMGWYRQAPGKERELVASIRKRGGTTYYADSVKGRFTISRDNAKNTVYLQMNSLKPEDTAVYYCAAQYGDEVDYWGQGTQVTVSS	high polyreactivity
QVQLVESGGGLVQAGGSLRLSCAASGSTFGVYAMGWYRQAPGKDRELVAAISRSGGRTYYADSVKGRFTISRDNAKNSVYLQMNSLKPEDTAVYYCALYGGLGDRFRPRYYWGQGTQVTVSS	high polyreactivity
QVQLVESGGGLVQAGGSLRLSCAASGSTFGVYAMGWYRQAPGKERELVAAIRWSSGSTYYADSVKGRFTISRDNAKNTVYLQMNSLKPEDTAVYYCAKTRGIYNIRFGYWGQGTQVTVSS	high polyreactivity
QVQLVESGGGLVQAGGSLRLSCAASGSTFGWYAMGWYRQAPGKERELVASITWDGGRTYYADSVKGRFTISRDNAKNTVYLLMNSLKPEDTAVYYCAARGVSSPLNYWGQGTQVTVSS	low polyreactivity
QVQLVESGGGLVQAGGSLRLSCAASGSTFGWYTMGWYRQSPGKERELVAAITSRGTRTSYADSVKGRFTISRDYAKNTVYLQMNSLKPEDTAVYYCAARVFRGLGEYYWGQGTQVTVSS	high polyreactivity
QVQLVESGGGLVQAGGSLRLSCAASGSTFGWYVMGWYRQAPGKERELVAAISQRGGRTYYADSVKGRFSISRDNAKNTVYLQMNSLKPEDTAVYYCAAPGVRVGPTFPRQGYDYWGQGTQVTVSS	high polyreactivity
QVQLVESGGGLVQAGGSLRLSCAASGSTFGWYVMGWYRQAPGKEREYVASISGSGGSTYYADSVKGRFTISRDNAKNTVYLQMNSLKPEDTAVYYCAAETGWYDDWSIYDYWGHGTQVTVSS	low polyreactivity
QVQLVESGGGLVQAGGSLRLSCAASGSTFGWYVMGWYRQAPGTERELVASITGSGGSTYYADSVKGRFTISRDNAKNTVYLQMNSLKPVDSAVYYCGADTGWYDDWTHDYWGQGTQVTVSS	low polyreactivity
QVQLVESGGGLVQAGGSLRLSCAASGSTFGYNAMGWYRPAPGKERELVAAISWNGGSTYYADSVKGRFTISRDNAKTTVYLQMNSLKPEDTAVYYCAAEHRGYFTRYDYWGQGTQVTVSS	low polyreactivity
QVQLVESGGGLVQAGGSLRLSCAASGSTFGYNAMGWYRQAPGKERELVADITWRGGRTYYADSVKGRFTISRDNAKNTVYLQMNSLKPEDTAVYYCAATSRGSGQRPGEAIIDYYYWGLGTQVTVSS	high polyreactivity
QVQLVESGGGLVQAGGSLRLSCAASGSTFGYNGMGWYRQAPGKVRELVAAISGGARTYADSVKGRFTISRDNAKNTVYLQMNSLKPEDTAVYYCAADSPVSVTADDGYWGQGTQVTVSS	low polyreactivity
QVQLVESGGGLVQAGGSLRLSCAASGSTFGYYAMGWYRQAPGKEREFVAAITYGDGNTYYADSVKGRFTISRDNAKNTVYLQMNSLKPEDTAVYYCAKYYWAPTGAHGGYGYWGQGTQVTVSS	low polyreactivity
QVQLVESGGGLVQAGGSLRLSCAASGSTFGYYAMGWYRQAPGKERELVAAISYNTGSTYYADSVKGRFTISRDNAKNTVYLQMNSLKPEDTAVFYCAASRSRYSVNWYNYWGQGTQVTVSS	high polyreactivity
QVQLVESGGGLVQAGGSLRLSCAASGSTFGYYAMGWYRQAPGKERELVATINRSGGSTYYADSVKGRFSISRDNAKNTVYLQMNSLKPEDTAVYYCNKLAYAGFGYIGSGYWGQGTQVTVSS	low polyreactivity
QVQLVESGGGLVQAGGSLRLSCAASGSTFGYYAMGWYRQAPGKERELVAVIRRGGSTNYADSVKGRFTISRDNAKNTVYLQMNSLKPEDTAVYYCAKSQRGTVYSYYYWGQGTQVTVSS	high polyreactivity
QVQLVESGGGLVQAGGSLRLSCAASGSTFGYYAMGWYRQAPGKERELVAVITSGGSTYYADSVKGRFTISRDNAKNTVFLQMNSLKPEDTAVYYCYARVQAVHYGYWGQGTQVTVSS	high polyreactivity
